# Measurements: patent US20240376170A1 (BRIGHT PEAK THERAPEUTICS, published 2024)
# Bridges are numbered along the chain shown (N, C = ends). Primed or numbered codes have the meaning given here. [ ]: non-standard residue; d: D form. 8x polyethylene glycol‑amino = O-(8x polyethylene glycol-amino)-tyrosine, SITE 45; 9x polyethylene glycol‑azido = O-(9x polyethylene glycol-azido)-tyrosine, SITE 42; Ygp = O-(8x polyethylene glycol-amino)-tyrosine (Tyr, amino-capped PEG8); Yn3 = O-(9x polyethylene glycol-azido)-tyrosine (Tyr, azide-capped PEG9); Ygp″ = O-(8x polyethylene glycol-amino)-tyrosine; Yn3″ = O-(9x polyethylene glycol-azido)-tyrosine; PEG16′ = 16x polyethylene glycol; PEG24′ = 24x polyethylene glycol; Ygp(6) = Tyr, amino-capped PEG8; Yn3(6) = Tyr, azide-capped PEG9; PEG4′ = 4x polyethylene glycol; hSer = N[C@@H](CCO)C(=O)O; Nle = CCCC[C@H](N)C(=O)O
# B1: CMP-300 (ligand)
# chain: GPLGLAG[PEG4′]APTSSSTKKTQLQLEHLLLDLQEILNGINNYKNPKLTR[Nle]L[hSer][Yn3″]KF[Ygp″][Nle]PKKATELKHLQCLEEELKPLEEVL[hSer]LAQSKNFHLRPRDLISNINVIVLELKGSETTF[hSer]CEYADETATIVEFLNRWITFSQSIISTLT
# modifications: lactam N-31; ends not checked
# B2: CMP-328, uPa cleaved (ligand)
# chain: APTSSSTKKTQLQLEHLLLDLQEILNGINNYKNPKLTR[Nle]L[hSer][Yn3]KF[Ygp][Nle]PKKATELKHLQCLEEELKPLEEVL[hSer]LAQSKNFHLRPRDLISNINVIVLELKGSETTF[hSer]CEYADETATIVEFLNRWITFSQSIISTLT
# modifications: also: uPa-cleaved, before the cut Lys9-Glu23 side chains bridged by peptide linker, product not given here
# B3: CMP-330, matriptase cleaved (ligand)
# chain: APTSSSTKKTQLQLEHLLLDLQEILNGINNYKNPKLTR[Nle]L[hSer]Y(9x polyethylene glycol‑azido)KFY(8x polyethylene glycol‑amino)[Nle]PKKATELKHLQCLEEELKPLEEVL[hSer]LAQSKNFHLRPRDLISNINVIVLELKGSETTF[hSer]CEYADETATIVEFLNRWITFSQSIISTLT
# modifications: not fully specified; also: before the cut Lys9 and Glu23 side chains are bridged by a peptide linker, what remains after the cut not given here
# B4: CMP-300, MMP2 cleaved (ligand)
# chain: APTSSSTKKTQLQLEHLLLDLQEILNGINNYKNPKLTR[Nle]L[hSer][Yn3″]KF[Ygp″][Nle]PKKATELKHLQCLEEELKPLEEVL[hSer]LAQSKNFHLRPRDLISNINVIVLELKGSETTF[hSer]CEYADETATIVEFLNRWITFSQSIISTLT
# modifications: ends and bridges not checked; also: MMP2 cleaved, ring opened, cut site and remnants not given here
# B5: CMP-316, uPa cleaved (ligand)
# chain: APTSSSTKKTQLQLEHLLLDLQKILNGINNYKNPKLTR[Nle]L[hSer][Yn3]KF[Ygp][Nle]PKKATELKHLQCLEEELKPLEEVL[hSer]LAQSKNFHLRPRDLISNINVIVLELKGSETTF[hSer]CEYADETATIVEFLNRWITFSQSIISTLT
# modifications: ends and bridges not checked; also: further groups not given here, tested after uPa cleavage, remaining product not given here
# B6: CMP-329, uPa cleaved (ligand)
# chain: APTSSSTKKTQLQLEHLLLDLQEILNGINNYKNPKLTR[Nle]L[hSer][Yn3″]KF[Ygp″][Nle]PKKATELKHLQCLEEELKPLEEVL[hSer]LAQSKNFHLRPRDLISNINVIVLELKGSETTF[hSer]CEYADETATIVEFLNRWITFSQSIISTLT
# modifications: ends and bridges not checked; also: uPa-cleaved, cut in the RQRRSVVGG bridge between Lys9 and Glu23, remaining fragments not given here
# B7: CMP-321, matriptase cleaved (ligand)
# chain: SGRVQPLVDAPTSSSTKKTQLQLEHLLLDLQEILNGINNYKNPKLTR[Nle]L[hSer][Yn3(6)]KF[Ygp(6)][Nle]PKKATELKHLQCLEEELKPLEEVL[hSer]LAQSKNFHLRPRDLISNINVIVLELKGSETTF[hSer]CEYADETATIVEFLNRWITFSQSIISTLT
# modifications: not fully specified (bridges)
# B8: CMP-330, uPa cleaved (ligand)
# chain: APTSSSTKKTQLQLEHLLLDLQEILNGINNYKNPKLTR[Nle]L[hSer]Y(9x polyethylene glycol‑azido)KFY(8x polyethylene glycol‑amino)[Nle]PKKATELKHLQCLEEELKPLEEVL[hSer]LAQSKNFHLRPRDLISNINVIVLELKGSETTF[hSer]CEYADETATIVEFLNRWITFSQSIISTLT
# modifications: not fully specified; also: before the cut Lys9 and Glu23 side chains are bridged by a peptide linker, what remains after the cut not given here
# B9: CMP-328, matriptase cleaved (ligand)
# chain: APTSSSTKKTQLQLEHLLLDLQEILNGINNYKNPKLTR[Nle]L[hSer][Yn3]KF[Ygp][Nle]PKKATELKHLQCLEEELKPLEEVL[hSer]LAQSKNFHLRPRDLISNINVIVLELKGSETTF[hSer]CEYADETATIVEFLNRWITFSQSIISTLT
# modifications: also: matriptase-cleaved, before the cut Lys9-Glu23 side chains bridged by peptide linker, product not given here
# B10: CMP-316, matriptase cleaved (ligand)
# chain: APTSSSTKKTQLQLEHLLLDLQKILNGINNYKNPKLTR[Nle]L[hSer][Yn3]KF[Ygp][Nle]PKKATELKHLQCLEEELKPLEEVL[hSer]LAQSKNFHLRPRDLISNINVIVLELKGSETTF[hSer]CEYADETATIVEFLNRWITFSQSIISTLT
# modifications: ends and bridges not checked; also: further groups not given here, tested after matriptase cleavage, remaining product not given here
# B11: CMP-329, matriptase cleaved (ligand)
# chain: APTSSSTKKTQLQLEHLLLDLQEILNGINNYKNPKLTR[Nle]L[hSer][Yn3″]KF[Ygp″][Nle]PKKATELKHLQCLEEELKPLEEVL[hSer]LAQSKNFHLRPRDLISNINVIVLELKGSETTF[hSer]CEYADETATIVEFLNRWITFSQSIISTLT
# modifications: ends and bridges not checked; also: after matriptase cleavage, remnants of the Lys9–Glu23 peptide linker not given here
# B12: CMP-137, MMP2 cleaved molecule (ligand)
# chain: APTSSSTKKTQLQLEHLLLDLQ[Nle]ILNGIENYKNPKLTR[Nle]L[hSer][Yn3]KF[Ygp][Nle]PKKATELKHLQCLEEELKPLEEVL[hSer]LAQSKNFHLRPRDLISNINVIVLELKGSETTF[hSer]CEYADETATIVEFLNRWITFSQSIISTLT
# modifications: ends and bridges not checked; also: cleaved by MMP2, cleavage product not defined, N-terminal PEG24 link and Glu29 side-chain attachment of the cleavable peptide not defined
# B13: CMP-139, MMP2 cleaved molecule (ligand)
# chain: APTSSSTKKTQLQLEHLLLDLQ[Nle]ILNGIENYKNPKLTR[Nle]L[hSer][Yn3]KF[Ygp][Nle]PKKATELKHLQCLEEELKPLEEVL[hSer]LAQSKNFHLRPRDLISNINVIVLELKGSETTF[hSer]CEYADETATIVEFLNRWITFSQSIISTLT
# modifications: ends and bridges not checked; also: cleaved by MMP2, cleavage product not defined, N-terminal PEG16 link and Glu29 side-chain attachment of the cleavable peptide not defined
# B14: CMP-139 (ligand)
# chain: [PEG16′]SGGPGPAGMKGLPGS[PEG16′]APTSSSTKKTQLQLEHLLLDLQ[Nle]ILNGIENYKNPKLTR[Nle]L[hSer][Yn3]KF[Ygp][Nle]PKKATELKHLQCLEEELKPLEEVL[hSer]LAQSKNFHLRPRDLISNINVIVLELKGSETTF[hSer]CEYADETATIVEFLNRWITFSQSIISTLT
# modifications: bridge (positions not given here); not fully specified (bridges); ends not checked
# B15: CMP-137 (ligand)
# chain: [PEG24′]PLGLAG[PEG24′]APTSSSTKKTQLQLEHLLLDLQ[Nle]ILNGIENYKNPKLTR[Nle]L[hSer][Yn3]KF[Ygp][Nle]PKKATELKHLQCLEEELKPLEEVL[hSer]LAQSKNFHLRPRDLISNINVIVLELKGSETTF[hSer]CEYADETATIVEFLNRWITFSQSIISTLT
# modifications: bridge (positions not given here); not fully specified (bridges); ends not checked
# Target: T1, IL-2Rβγ on HEK-Blue IL-2Rβγ reporter cells (InvivoGen) (UniProt P14784 27-551; P31785 23-369, limits assumed)
# T1 sequence (looked up) 1: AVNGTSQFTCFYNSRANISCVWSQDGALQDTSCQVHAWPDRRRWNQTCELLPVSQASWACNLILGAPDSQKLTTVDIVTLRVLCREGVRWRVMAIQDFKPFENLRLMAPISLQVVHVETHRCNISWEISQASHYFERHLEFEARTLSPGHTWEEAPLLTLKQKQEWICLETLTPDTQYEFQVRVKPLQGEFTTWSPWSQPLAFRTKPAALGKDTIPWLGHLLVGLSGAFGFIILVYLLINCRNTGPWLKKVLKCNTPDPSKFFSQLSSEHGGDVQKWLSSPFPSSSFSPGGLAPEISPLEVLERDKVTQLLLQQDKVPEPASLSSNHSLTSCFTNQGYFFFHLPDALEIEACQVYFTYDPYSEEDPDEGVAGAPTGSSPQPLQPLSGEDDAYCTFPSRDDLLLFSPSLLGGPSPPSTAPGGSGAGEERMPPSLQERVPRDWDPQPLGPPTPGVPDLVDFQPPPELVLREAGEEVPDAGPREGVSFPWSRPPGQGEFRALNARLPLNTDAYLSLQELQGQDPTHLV
# T1 sequence (looked up) 2: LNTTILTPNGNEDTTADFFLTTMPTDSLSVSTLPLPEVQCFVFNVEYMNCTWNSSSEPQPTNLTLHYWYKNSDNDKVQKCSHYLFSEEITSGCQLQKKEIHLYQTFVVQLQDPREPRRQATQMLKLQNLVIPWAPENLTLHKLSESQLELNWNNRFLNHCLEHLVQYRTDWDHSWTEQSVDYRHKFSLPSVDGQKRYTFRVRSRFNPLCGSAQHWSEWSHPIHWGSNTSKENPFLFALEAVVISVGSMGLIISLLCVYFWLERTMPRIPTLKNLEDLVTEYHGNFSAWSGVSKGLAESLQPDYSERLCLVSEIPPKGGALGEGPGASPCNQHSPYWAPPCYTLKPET
# Assay: cell-based or functional assay
Binder,"Average EC50, HEK-Blue IL-2R (CD122+, CD132+) Reporter Assay, intact molecule","Average EC50, HEK-Blue IL-2R (CD122+, CD132+) Reporter Assay, uPa cleaved molecule","Average EC50, HEK-Blue IL-2R (CD122+, CD132+) Reporter Assay, Matriptase cleaved molecule","Average EC50, HEK-Blue IL-2R (CD122+, CD132+) Reporter Assay, MMP2 cleaved molecule"
B1,0.711 nM,–,–,–
B2,–,0.571 nM,–,–
B3,–,–,2.15 nM,–
B4,–,–,–,0.0094 nM
B5,–,0.0884 nM,–,–
B6,–,1.41 nM,–,–
B7,–,–,4.22 nM,–
B8,–,1.73 nM,–,–
B9,–,–,0.352 nM,–
B10,–,–,0.0828 nM,–
B11,–,–,1.47 nM,–

# Target: T2, IL-2 receptor βγ complex (human, UniProt P14784 27-551; P31785 23-369)
# T2 sequence (looked up) 1: T1 sequence (looked up) 1
# T2 sequence (looked up) 2: T1 sequence (looked up) 2
# Assay: cell-based or functional assay
row,Binder,"Average EC50, pSTAT5 Assay (T cells)"
1,B12,4.09 nM
2,B13,3.61 nM
3,B14,21.3 nM
4,B15,27.1 nM
